Measurements from patent US6989364B1, “Methods for treating cardiac hypertrophy by administering IFN-γ” (Genentech, Inc., priority 1998, dated 2006).

System: male Sprague/Dawley (SD) rats
Assay: Cardiac hypertrophy induced by fluprostenol in vivo: body and organ weights
Parameters: species or system rat
Description: This pharmacological model tests the ability of IFN-γ to inhibit cardiac hypertrophy induced in rats (e.g. male Wistar or Sprague-Dawley) by subcutaneous injection of fluprostenol (an agonist analog of PGF2α). It is known that rats with pathologic cardiac hypertrophy induced by myocardial infarction have chronically elevated levels of extractable PGF2α in their myocardium. Lai et al, Am. J. Physiol. (Heart Circ. Physiol.) 271:H2197–H2208 (1996). Accordingly, factors that can inhibit the effects of fluprostenol on myocardial growth in vivo are potentially useful for treating cardiac hypertrophy. The effects of IFN-γ on cardiac hypertrophy are determined by measuring the weight of heart, ventricles, and left ventricle (normalized by body weight) relative to fluprostenol-treated rats not receiving IFN-γ. A detailed description of this assay is provided in the examples.
Animals All experimental procedures conformed to the guiding principles of the American Physiology Society, and were approved by Genentech's Institutional Animal Care and Use Committee. The animals used in this study were male Sprague/Dawley (SD) rats (8 weeks of age, Charles River Breeding Laboratories, Inc.). The animals were acclimated to the facility for at least one week before experiments, fed a pelleted rat chow and water ad libitum, and housed in a light and temperature controlled room.
Administration of fluprostenol and/or IFN-γ Rats received subcutaneous injection of fluprostenol (Cayman Chemical, Ann Arbor, Mich.) at 0.15 mg/kg, recombinant mouse IFN-γ (Genentech, Inc., South San Francisco, Calif.) at 0.08 mg/kg, combination of fluprostenol and IFN-γ, or saline vehicle, twice a day for 14 days. In the IFN-γ and fluprostenol+IFN-γ groups, animals were pretreated with IFN-γ for one day. Body weight was measured before and after treatment. A previous study has shown that the dose of fluprostenol used here is the lowest dose which produces a significant cardiac hypertrophy in rats. Lai et al., supra.
Measurement of organ weights Under anesthesia with ketamine/xylazine, the heart, kidney, and spleen were removed, dissected and weighed. The left ventricle was stored at […] for evaluation of gene expression.
Statistical analyisis Results are expressed as mean±SEM. One way analysis of variance (ANOVA) was performed to assess differences in parameters between groups. Significant differences were then subjected to post hoc analysis using Newman-Keuls method; P<0.05 was considered significant.

[1] = IFN-γ 0.08 mg/kg s.c. twice a day, rats
[2] = s.c. twice a day for 14 days, fluprostenol 0.15 mg/kg, IFN-γ 0.08 mg/kg, mean ± SEM

Substance: IFN-γ: recombinant mouse IFN-γ (Genentech, Inc., South San Francisco, Calif., or Genzyme, Cambridge, Mass.)
- Ratio of heart, ventricular, and left ventricular weights to body weight (FIG. 4) (14 days, fluprostenol and IFN-γ alone vs vehicle, fluprostenol+IFN-γ vs fluprostenol group): did not significantly alter
- Effect on body weight, pilot study [1]: little effects on body weight
- Effect on fluprostenol-induced cardiac hypertrophy, pilot study [1]: inhibited fluprostenol-induced cardiac hypertrophy
- BWO, basal levels of body weight (before treatment, mean ± SEM): 292.5 ± 3.2 g
- BW, body weight post treatment [2]: 380.8 ± 6.1 g
- HW, heart weight [2]: .956 ± .029 g
- KW, kidney weight [2]: 1.327 ± .035 g
- KW/BW, kidney weight to body weight [2]: 3.483 ± .069 g/kg
- LVW, left ventricular weight [2]: .696 ± .023 g
- SW, spleen weight [2]: .924 ± .068 g
- SW/BW, spleen weight to body weight [2]: 2.415 ± .149 g/kg
- VW, ventricular weight [2]: .914 ± .029 g
- ΔBW, BW-BWO [2]: 88.3 ± 5.0 g
